Experimental data: patent US10941182 (Amgen, dated 2021)
Starred links: 1 amine or outer side, 2 acyl side, 3 side chain; linkers in the order of their positions; H or OH if unused. Non-standard residues stand in square brackets, D forms with d. Primed or numbered codes have the meaning given here. No end group written: not given here. *: point of attachment. Pra′ = its azide, alkyne or alkene has reacted where a group follows in round brackets; Atz = 3-(1,2,3-triazol-4-yl)alanine, O=C([C@H](Cc1c[nH]nn1)N[*:1])[*:2]; Propanoyl(3-triazol-4-yl) = O=C(CCc1cn([*:1])nn1)[*:2]; PEG12 = NCCOCCOCCOCCOCCOCCOCCOCCOCCOCCOCCOCCOCCC(=O)O; dBip = N[C@H](Cc1ccc(-c2ccccc2)cc1)C(=O)O; BhLeu = source's own code, no definition; BhPhe = source's own code, no definition; Oic = O=C(O)[C@@H]1C[C@@H]2CCCC[C@@H]2N1; Phe(4-Cl) = N[C@@H](Cc1ccc(Cl)cc1)C(=O)O; dPhe(4-Cl) = N[C@H](Cc1ccc(Cl)cc1)C(=O)O; Phe(4-I) = N[C@@H](Cc1ccc(I)cc1)C(=O)O; γGlu = O=C(O)[C@H](CCC(=O)[*:2])N[*:1]; d1Nal = N[C@H](Cc1cccc2ccccc12)C(=O)O; NMeR = CN[C@@H](CCCNC(=N)N)C(=O)O; Tridecanoyl = CCCCCCCCCCCCC(=O)*; hArg = N=C(N)NCCCC[C@H](N)C(=O)O; Cha = N[C@@H](CC1CCCCC1)C(=O)O; NMeL = CN[C@@H](CC(C)C)C(=O)O; AC4Abu″ = not defined here; code O = not defined here; Nle = CCCC[C@H](N)C(=O)O; Orn = NCCC[C@H](N)C(=O)O; AEEA = NCCOCCOCC(=O)O; βAla = NCCC(=O)O; Mpa = O=C(O)CCS

T1: rat APJ receptor (rat, UniProt Q9JHG3 1-377)
T1 sequence (looked up): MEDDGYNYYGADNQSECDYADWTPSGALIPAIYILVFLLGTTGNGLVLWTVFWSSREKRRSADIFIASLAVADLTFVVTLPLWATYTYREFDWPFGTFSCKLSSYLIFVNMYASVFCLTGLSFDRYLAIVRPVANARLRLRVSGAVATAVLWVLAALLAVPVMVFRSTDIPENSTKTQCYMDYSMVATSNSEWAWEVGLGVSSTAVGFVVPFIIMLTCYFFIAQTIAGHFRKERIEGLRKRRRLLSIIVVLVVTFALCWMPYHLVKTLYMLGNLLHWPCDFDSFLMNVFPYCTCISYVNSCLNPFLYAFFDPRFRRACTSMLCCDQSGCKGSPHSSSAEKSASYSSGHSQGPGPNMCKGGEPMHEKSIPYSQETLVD

T2: human APJ receptor (human, UniProt P35414 1-380)
T2 sequence (looked up): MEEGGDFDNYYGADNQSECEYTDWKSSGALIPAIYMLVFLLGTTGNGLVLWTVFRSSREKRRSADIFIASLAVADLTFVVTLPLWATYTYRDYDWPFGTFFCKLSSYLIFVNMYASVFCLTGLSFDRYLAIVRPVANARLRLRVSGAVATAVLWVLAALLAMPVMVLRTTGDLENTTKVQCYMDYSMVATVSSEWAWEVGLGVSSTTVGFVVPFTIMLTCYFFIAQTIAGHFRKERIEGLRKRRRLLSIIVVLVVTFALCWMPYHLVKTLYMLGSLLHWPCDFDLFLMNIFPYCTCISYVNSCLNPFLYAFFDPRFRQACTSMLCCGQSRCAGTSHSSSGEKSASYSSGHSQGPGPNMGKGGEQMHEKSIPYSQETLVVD


How the values were obtained:
[1] = biological target: T1, rat APJ receptor; assay: cell-based or functional assay
[2] = biological target: T2, human APJ receptor; assay: cell-based or functional assay

Row | Binder | EC50 Rat APJ Receptor [1] | EC50 Human APJ Receptor [2]
1 | {20K‑mPEGReg-Propanoyl(3-triazol-4-yl)}-[hArg][dR]Q[hArg]P[dR][NMeL]SHKG[Oic][Phe(4-I)]P[dBip]-OH (also: 20 kDa PEG conjugate) [apelin polypeptide SEQ ID NO: 103] | 52.2 nM | 34.2 nM
2 | Tridecanoyl-[AC4Abu″][AEEA][AEEA][hArg]Q[dR]P[NMeR][Cha]SHKG[Oic][Nle]P[dPhe(4-Cl)]-OH (reading uncertain) [apelin polypeptide SEQ ID NO: 230] | 13.8 nM | –
3 | Ac-[hArg][hArg]Q[hArg]P[NMeR][Cha]SHKG[Oic][Nle]P[Phe(4-Cl)]-OH (SMILES CCCC[C@H](NC(=O)[C@@H]1C[C@@H]2CCCC[C@@H]2N1C(=O)CNC(=O)[C@H](CCCCN)NC(=O)[C@H](Cc1c[nH]cn1)NC(=O)[C@H](CO)NC(=O)[C@H](CC1CCCCC1)NC(=O)[C@H](CCCNC(=N)N)N(C)C(=O)[C@@H]1CCCN1C(=O)[C@H](CCCCNC(=N)N)NC(=O)[C@H](CCC(N)=O)NC(=O)[C@H](CCCCNC(=N)N)NC(=O)[C@H](CCCCNC(=N)N)NC(C)=O)C(=O)N1CCC[C@H]1C(=O)N[C@@H](Cc1ccc(Cl)cc1)C(=O)O) [apelin polypeptide SEQ ID NO: 56] | 0.915 nM | –
4 | Ac-[Atz](20K‑mPEG)LRP[hArg][Cha]SHKG[Oic][Nle]P[Phe(4-Cl)]-OH [apelin polypeptide SEQ ID NO: 106] | 47.3 nM | 3.22 nM
5 | [hArg]Q[hArg]P[NMeR][Cha]SHKG[Oic][Nle]P[Phe(4-Cl)] [apelin polypeptide SEQ ID NO: 674] | – | 0.152 nM
6 | Tridecanoyl-[γGlu][AEEA][AEEA][hArg][dQ][hArg]P[NMeR][Cha]SHKG[Oic][Nle]P[dF]-OH (SMILES CCCCCCCCCCCCC(=O)N[C@@H](CCC(=O)NCCOCCOCC(=O)NCCOCCOCC(=O)N[C@@H](CCCCNC(=N)N)C(=O)N[C@H](CCC(N)=O)C(=O)N[C@@H](CCCCNC(=N)N)C(=O)N1CCC[C@H]1C(=O)N(C)[C@@H](CCCNC(=N)N)C(=O)N[C@@H](CC1CCCCC1)C(=O)N[C@@H](CO)C(=O)N[C@@H](Cc1c[nH]cn1)C(=O)N[C@@H](CCCCN)C(=O)NCC(=O)N1[C@H](C(=O)N[C@@H](CCCC)C(=O)N2CCC[C@H]2C(=O)N[C@H](Cc2ccccc2)C(=O)O)C[C@@H]2CCCC[C@@H]21)C(=O)O) [apelin polypeptide SEQ ID NO: 149] | 9.99 nM | 3.19 nM
7 | {20K‑mPEGReg-Propanoyl(3-triazol-4-yl)}-[hArg]RQ[hArg]PR[NMeL]SHKG[Oic][Phe(4-I)]P[dBip]-OH (also: 20 kDa PEG conjugate) [apelin polypeptide SEQ ID NO: 104] | 45 nM | 18.9 nM
8 | {20K mPEGacetamide}-[Mpa]QRP[hArg][Cha]SHKG[Oic][Nle]P[Phe(4-Cl)]-OH (numbers in words are those of the source; also: 20 kDa PEG conjugate) [apelin polypeptide SEQ ID NO: 101] | 150 nM | 46.7 nM
9 | [PEG12]KFRRQRP[hArg][Cha]SHKG[Oic][Nle]P[Phe(4-Cl)]-OH (also: PEG-apelin peptide conjugate) [apelin polypeptide SEQ ID NO: 102] | 0.18 nM | 0.083 nM
10 | [code O][BhPhe][hArg][hArg]Q[hArg]P[hArg][Cha]SHKG[Oic][Nle]P[Phe(4-Cl)] (reading uncertain; also: printed as O[BhPhe][hArg][hArg]Q[hArg]P[hArg][Cha]SHKG[Oic][Nle]P[4-Cl-F]) [apelin polypeptide SEQ ID NO: 686] | 0.188 nM | –
11 | Ac-[Pra′](20K‑mPEGReg)[Orn]F[hArg][hArg]QRP[hArg][NMeL]SHKG[Oic][Phe(4-I)]P[dBip]-OH [apelin polypeptide SEQ ID NO: 107] | 10 nM | 10.5 nM
12 | Ac-[Atz](20K‑mPEG)KFRRQRP[hArg][Cha]SHKG[Oic][Nle]P[Phe(4-Cl)]-OH [apelin polypeptide SEQ ID NO: 105] | 0.285 nM | 0.187 nM
13 | KFRRQRP[hArg][Cha]SHKG[Oic][Nle]P[Phe(4-Cl)]-OH (not fully specified (N-terminus); printed as [MerPr](20K mPEGacetamide)KFRRQRP[hArg][Cha]SHKG[Oic][Nle]P[4-Cl-F]{COOH}; also: 20K mPEG acetamide conjugate on MerPr) [apelin polypeptide SEQ ID NO: 97] | 0.253 nM | –
14 | Tridecanoyl-[AC4Abu″][AEEA][AEEA][hArg]Q[dR]P[NMeR][Cha]SHKG[Oic][Nle][d1Nal]-OH (reading uncertain) [apelin polypeptide SEQ ID NO: 165] | 30.3 nM | –
15 | Tridecanoyl-[γGlu][AEEA][AEEA][dQ][hArg]P[NMeR][Cha]SHKG[Oic][Nle]P[dF]-OH (SMILES CCCCCCCCCCCCC(=O)N[C@@H](CCC(=O)NCCOCCOCC(=O)NCCOCCOCC(=O)N[C@H](CCC(N)=O)C(=O)N[C@@H](CCCCNC(=N)N)C(=O)N1CCC[C@H]1C(=O)N(C)[C@@H](CCCNC(=N)N)C(=O)N[C@@H](CC1CCCCC1)C(=O)N[C@@H](CO)C(=O)N[C@@H](Cc1c[nH]cn1)C(=O)N[C@@H](CCCCN)C(=O)NCC(=O)N1[C@H](C(=O)N[C@@H](CCCC)C(=O)N2CCC[C@H]2C(=O)N[C@H](Cc2ccccc2)C(=O)O)C[C@@H]2CCCC[C@@H]21)C(=O)O) [apelin polypeptide SEQ ID NO: 126] | 56.2 nM | 11 nM
16 | [code O]F[hArg][hArg]Q[hArg]P[hArg][Cha]SHKG[Oic][βAla]P[Phe(4-Cl)] (reading uncertain; also: printed as OF[hArg][hArg]Q[hArg]P[hArg][Cha]SHKG[Oic][bAla]P[4-Cl-F]) [apelin polypeptide SEQ ID NO: 708] | – | 7.46 nM
17 | [code O]F[hArg][hArg][BhLeu][hArg]P[hArg][Cha]SHKG[Oic][Nle]P[Phe(4-Cl)] (reading uncertain; also: printed as OF[hArg][hArg][BhLeu][hArg]P[hArg][Cha]SHKG[Oic][Nle]P[4-Cl-F]) [apelin polypeptide SEQ ID NO: 692] | 0.503 nM | –
18 | Tridecanoyl-[AC4Abu″][AEEA][AEEA]RQRP[hArg][NMeL]SHKG[Oic][Phe(4-I)]P[dBip]-OH (reading uncertain) [apelin polypeptide SEQ ID NO: 212] | – | 0.515 nM
